This is an account of results in PMC4823042, “Transcription factor LSF (TFCP2) inhibits melanoma growth”.

The data set has as its target T1, LSF (Late SV40 factor 3) (human, UniProt Q12800 1-502).
T1 sequence: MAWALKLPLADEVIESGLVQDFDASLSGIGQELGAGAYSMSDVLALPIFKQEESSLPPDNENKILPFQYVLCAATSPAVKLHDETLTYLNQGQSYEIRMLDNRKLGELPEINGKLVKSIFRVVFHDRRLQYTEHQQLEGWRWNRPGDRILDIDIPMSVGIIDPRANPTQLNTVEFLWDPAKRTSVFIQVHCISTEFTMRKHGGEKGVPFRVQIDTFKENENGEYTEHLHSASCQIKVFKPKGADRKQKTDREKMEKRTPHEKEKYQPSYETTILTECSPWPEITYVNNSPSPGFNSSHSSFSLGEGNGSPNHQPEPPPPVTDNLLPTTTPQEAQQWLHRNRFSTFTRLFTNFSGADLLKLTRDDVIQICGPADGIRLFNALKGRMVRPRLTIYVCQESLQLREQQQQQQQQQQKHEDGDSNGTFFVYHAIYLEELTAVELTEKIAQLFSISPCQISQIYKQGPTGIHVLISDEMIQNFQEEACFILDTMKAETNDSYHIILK
The experiment in a line: EMSA; LightShift Chemiluminescent EMSA kit per manufacturer; 7% PAGE in 0.5x TBE; binding buffer, pH and temperature not stated. The conditions noted are these: protein: ivt, tags: FLAG, chain copies: 4, label: biotin end label.

Setting [1] is: 5' overhangs 4 nt on both strands.

B1: p21 promoter #4 (dsDNA)
DNA 1: GCCTCCTTGAGGCGGGCCCGGGCGGGGCGGT
DNA 2: TACAACCGCCCCGCCCGGGCCCGCCTCAAGG
With B1, the binding result under setting [1] was “binds”.

B2: p21 promoter #2 (dsDNA)
DNA 1: GCTGGAACTCGGCCAGGCTCAGCTGGCTCGG
DNA 2: AGCGCCGAGCCAGCTGAGCCTGGCCGAGTTC
Turning to B2, the binding result under setting [1] is “binds”.

B3: p21 promoter #4 mutant (dsDNA)
DNA 1: GCCTCCTTGAGTAGGTCCCGGTAGGTGCGGT
DNA 2: TACAACCGCACCTACCGGGACCTACTCAAGG
Turning to B3, the binding result under setting [1] is reported as “no binding”.

B4: p21 promoter #1 (dsDNA)
DNA 1: GCACGCGAGGTTCCGGGACCGGCTGGCCTGC
DNA 2: TCCAGCAGGCCAGCCGGTCCCGGAACCTCGC
B4: the binding result under setting [1] was “binds”.

B5: p21 promoter #1 mutant (dsDNA)
DNA 1: GCACGCGAGGTTACGTGACCGTATGTCCTGC
DNA 2: TCCAGCAGGACATACGGTCACGTAACCTCGC
B5: the binding result under setting [1] is recorded as “no binding”.

B6: p21 promoter #3 (dsDNA)
DNA 1: GCTGGCTCGGCGCTGGGCAGCCAGGAGCCT
DNA 2: GCCCAGGCTCCTGGCTGCCCAGCGCCGAGCC
Turning to B6, the binding result (5' overhangs 3 nt (top) and 4 nt (bottom)) is “binds”.
